Measured values from patent US20260098059A1 (ENDOMET BIOSCIENCES, published 2026).
Where “and” joins values, the source holds several entries; their conditions need not be identical. Equal entries are not always repeated. Where no end group is shown, it is not given here. [ ]: non-standard residue; d: D form. Trp(1-Me) = Cn1cc(C[C@H](N)C(=O)O)c2ccccc21; αMeW = C[C@](N)(Cc1c[nH]c2ccccc12)C(=O)O; Trp(3-Me) = 3-methyltryptophan; αMeL = CC(C)C[C@](C)(N)C(=O)O

T1: β-catenin (UniProt P35222 134-665, limits assumed, biotinylated in the SPR and plate assays)
T1 sequence (looked up): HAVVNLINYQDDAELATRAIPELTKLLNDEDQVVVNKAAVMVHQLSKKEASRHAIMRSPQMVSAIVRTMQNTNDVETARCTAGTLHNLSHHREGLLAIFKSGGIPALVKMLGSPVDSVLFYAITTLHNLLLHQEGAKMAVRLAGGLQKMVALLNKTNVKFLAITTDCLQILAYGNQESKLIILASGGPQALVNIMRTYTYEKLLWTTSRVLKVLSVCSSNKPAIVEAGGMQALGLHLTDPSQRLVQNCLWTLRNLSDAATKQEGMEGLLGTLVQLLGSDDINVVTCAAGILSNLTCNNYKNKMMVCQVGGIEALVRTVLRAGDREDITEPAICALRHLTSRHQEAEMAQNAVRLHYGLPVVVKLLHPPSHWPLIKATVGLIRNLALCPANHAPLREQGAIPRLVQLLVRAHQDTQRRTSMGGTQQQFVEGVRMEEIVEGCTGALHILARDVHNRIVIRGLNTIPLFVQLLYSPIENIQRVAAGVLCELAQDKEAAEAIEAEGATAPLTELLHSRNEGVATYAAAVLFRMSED

B1: SEQ ID NO: 117 (peptide)
peptide: H-KWILICFWG-OH
B2: SEQ ID NO: 140 (peptide)
peptide: H-MWFLICH[Trp(1-Me)]G-OH
B3: SEQ ID NO: 152 (peptide)
peptide: H-MWILISYWG-OH
B4: SEQ ID NO: 147 (peptide)
peptide: MWFLICFWD
HELM: PEPTIDE1{[O=C(CCCN[*:1])[*:2]].M.W.F.L.I.C.F.W.D}$PEPTIDE1,PEPTIDE1,1:R1-10:R3$$$V2.0
SMILES: CC[C@H](C)[C@@H]1NC(=O)[C@H](CC(C)C)NC(=O)[C@H](Cc2ccccc2)NC(=O)[C@H](Cc2c[nH]c3ccccc23)NC(=O)[C@H](CCSC)NC(=O)CCCNC(=O)C[C@@H](C(=O)O)NC(=O)[C@H](Cc2c[nH]c3ccccc23)NC(=O)[C@H](Cc2ccccc2)NC(=O)[C@H](CS)NC1=O
B5: SEQ ID NO: 120 (peptide)
peptide: KWILICFWD
HELM: PEPTIDE1{K.W.I.L.I.C.F.W.D}$PEPTIDE1,PEPTIDE1,1:R3-9:R3$$$V2.0
SMILES: CC[C@H](C)[C@@H]1NC(=O)[C@H](CC(C)C)NC(=O)[C@H]([C@@H](C)CC)NC(=O)[C@H](Cc2c[nH]c3ccccc23)NC(=O)[C@@H](N)CCCCNC(=O)C[C@@H](C(=O)O)NC(=O)[C@H](Cc2c[nH]c3ccccc23)NC(=O)[C@H](Cc2ccccc2)NC(=O)[C@H](CS)NC1=O
B6: SEQ ID NO: 145 (peptide)
peptide: H-MWFLICHWG-OH
B7: SEQ ID NO: 141 (peptide)
peptide: VWFLICFWG
HELM: PEPTIDE1{[Nva].W.F.L.I.C.F.W.G}$$$$V2.0
SMILES: CCC[C@H](N)C(=O)N[C@@H](Cc1c[nH]c2ccccc12)C(=O)N[C@@H](Cc1ccccc1)C(=O)N[C@@H](CC(C)C)C(=O)N[C@H](C(=O)N[C@@H](CS)C(=O)N[C@@H](Cc1ccccc1)C(=O)N[C@@H](Cc1c[nH]c2ccccc12)C(=O)NCC(=O)O)[C@@H](C)CC
B8: SEQ ID NO: 134 (peptide)
peptide: H-M[αMeW]ILISFWG-OH
B9: SEQ ID NO: 130 (peptide)
peptide: H-MWI[αMeL]ICFWG-OH
B10: SEQ ID NO: 118 (peptide)
peptide: H-HWILICFWG-OH
B11: SEQ ID NO: 135 (peptide)
peptide: H-MWFLICH[Trp(3-Me)]G-OH
B12: SEQ ID NO: 119 (peptide)
peptide: H-RWILICFWG-OH
B13: SEQ ID NO: 143 (peptide)
peptide: H-MWFLIQFWG-OH
B14: SEQ ID NO: 110 (peptide)
peptide: H-WFLISFW-OH
B15: SEQ ID NO: 98 (peptide)
peptide: WFLISFW-NH2
B16: SEQ ID NO: 103 (peptide)
peptide: H-WFLISTW-OH
B17: SEQ ID NO: 104 (peptide)
peptide: WFLISSW
HELM: PEPTIDE1{W.F.L.I.S.[CCOC[C@H](N[*:1])C(=O)[*:2]].W}$$$$V2.0
SMILES: CCOC[C@H](NC(=O)[C@H](CO)NC(=O)[C@@H](NC(=O)[C@H](CC(C)C)NC(=O)[C@H](Cc1ccccc1)NC(=O)[C@@H](N)Cc1c[nH]c2ccccc12)[C@@H](C)CC)C(=O)N[C@@H](Cc1c[nH]c2ccccc12)C(=O)O
B18: SEQ ID NO: 97 (peptide)
peptide: H-WFLISSW-OH
B19: SEQ ID NO: 101 (peptide)
peptide: WFLISSW
HELM: PEPTIDE1{W.F.L.I.S.[O=C([C@H](COCc1ccccc1)N[*:1])[*:2]].W}$$$$V2.0
SMILES: CC[C@H](C)[C@H](NC(=O)[C@H](CC(C)C)NC(=O)[C@H](Cc1ccccc1)NC(=O)[C@@H](N)Cc1c[nH]c2ccccc12)C(=O)N[C@@H](CO)C(=O)N[C@@H](COCc1ccccc1)C(=O)N[C@@H](Cc1c[nH]c2ccccc12)C(=O)O
B20: SEQ ID NO: 100 (peptide)
peptide: H-WFLITTW-OH
B21: SEQ ID NO: 109 (peptide)
peptide: H-WFLISYW-OH
B22: SEQ ID NO: 113 (peptide)
peptide: H-KMWILICFWG-OH
B23: SEQ ID NO: 170 (peptide)
peptide: KMWFLICFWD
HELM: PEPTIDE1{K.M.W.F.L.I.C.F.W.D}$PEPTIDE1,PEPTIDE1,1:R3-10:R3$$$V2.0
SMILES: CC[C@H](C)[C@@H]1NC(=O)[C@H](CC(C)C)NC(=O)[C@H](Cc2ccccc2)NC(=O)[C@H](Cc2c[nH]c3ccccc23)NC(=O)[C@H](CCSC)NC(=O)[C@@H](N)CCCCNC(=O)C[C@@H](C(=O)O)NC(=O)[C@H](Cc2c[nH]c3ccccc23)NC(=O)[C@H](Cc2ccccc2)NC(=O)[C@H](CS)NC1=O
B24: SEQ ID NO: 124 (peptide)
peptide: H-RMWILISFWG-OH
B25: SEQ ID NO: 167 (peptide)
peptide: KMWFLICAWD
HELM: PEPTIDE1{K.M.W.F.L.I.C.A.W.D}$PEPTIDE1,PEPTIDE1,1:R3-10:R3$$$V2.0
SMILES: CC[C@H](C)[C@@H]1NC(=O)[C@H](CC(C)C)NC(=O)[C@H](Cc2ccccc2)NC(=O)[C@H](Cc2c[nH]c3ccccc23)NC(=O)[C@H](CCSC)NC(=O)[C@@H](N)CCCCNC(=O)C[C@@H](C(=O)O)NC(=O)[C@H](Cc2c[nH]c3ccccc23)NC(=O)[C@H](C)NC(=O)[C@H](CS)NC1=O
B26: SEQ ID NO: 115 (peptide)
peptide: H-RMWILICFWG-OH
B27: SEQ ID NO: 171 (peptide)
peptide: KMWFLISFWD
HELM: PEPTIDE1{K.M.W.F.L.I.S.F.W.D}$PEPTIDE1,PEPTIDE1,1:R3-10:R3$$$V2.0
SMILES: CC[C@H](C)[C@@H]1NC(=O)[C@H](CC(C)C)NC(=O)[C@H](Cc2ccccc2)NC(=O)[C@H](Cc2c[nH]c3ccccc23)NC(=O)[C@H](CCSC)NC(=O)[C@@H](N)CCCCNC(=O)C[C@@H](C(=O)O)NC(=O)[C@H](Cc2c[nH]c3ccccc23)NC(=O)[C@H](Cc2ccccc2)NC(=O)[C@H](CO)NC1=O
B28: SEQ ID NO: 114 (peptide)
peptide: H-HMWILICFWG-OH
B29: SEQ ID NO: 107 (peptide)
peptide: MWFLISFW-NH2
B30: SEQ ID NO: 94 (peptide)
peptide: KSRHWFLISFW-NH2
B31: SEQ ID NO: 106 (peptide)
peptide: MSRMWFLISSW
HELM: PEPTIDE1{M.S.R.M.W.F.L.I.S.[O=C([C@H](COCc1ccccc1)N[*:1])[*:2]].W}$$$$V2.0
SMILES: CC[C@H](C)[C@H](NC(=O)[C@H](CC(C)C)NC(=O)[C@H](Cc1ccccc1)NC(=O)[C@H](Cc1c[nH]c2ccccc12)NC(=O)[C@H](CCSC)NC(=O)[C@H](CCCNC(=N)N)NC(=O)[C@H](CO)NC(=O)[C@@H](N)CCSC)C(=O)N[C@@H](CO)C(=O)N[C@@H](COCc1ccccc1)C(=O)N[C@@H](Cc1c[nH]c2ccccc12)C(=O)O
B32: SEQ ID NO: 99 (peptide)
peptide: H-MSRMWFLISSW-OH
B33: SEQ ID NO: 105 (peptide)
peptide: MSRMWFLISSW
HELM: PEPTIDE1{M.S.R.M.W.F.L.I.S.[CCOC[C@H](N[*:1])C(=O)[*:2]].W}$$$$V2.0
SMILES: CCOC[C@H](NC(=O)[C@H](CO)NC(=O)[C@@H](NC(=O)[C@H](CC(C)C)NC(=O)[C@H](Cc1ccccc1)NC(=O)[C@H](Cc1c[nH]c2ccccc12)NC(=O)[C@H](CCSC)NC(=O)[C@H](CCCNC(=N)N)NC(=O)[C@H](CO)NC(=O)[C@@H](N)CCSC)[C@@H](C)CC)C(=O)N[C@@H](Cc1c[nH]c2ccccc12)C(=O)O
B34: SEQ ID NO: 95 (peptide)
peptide: KSRWWFLISFW-NH2

Molecular target: T1, β-catenin
Assay: cell-based or functional assay

| Binder | Wnt Reporter EC50 |
| --- | --- |
| B1 | > 15 µM and ≤ 22.5 µM |
| B2 | > 15 µM and ≤ 22.5 µM |
| B3 | ≤ 7.5 µM |
| B4 | > 30 µM |
| B5 | ≤ 7.5 µM |
| B6 | > 7.5 µM and ≤ 15 µM |
| B7 | > 7.5 µM and ≤ 15 µM |
| B8 | > 30 µM |
| B9 | > 22.5 µM and ≤ 30 µM |
| B10 | ≤ 7.5 µM |
| B11 | > 7.5 µM and ≤ 15 µM |
| B12 | > 7.5 µM and ≤ 15 µM |
| B13 | > 7.5 µM and ≤ 15 µM |
| B14 | > 7.5 µM and ≤ 15 µM |
| B15 | > 30 µM |
| B16 | > 15 µM and ≤ 22.5 µM |
| B17 | > 7.5 µM and ≤ 15 µM |

| Binder | Wnt Reporter EC50 |
| --- | --- |
| B18 | > 22.5 µM and ≤ 30 µM |
| B19 | > 7.5 µM and ≤ 15 µM |
| B20 | > 7.5 µM and ≤ 15 µM |
| B21 | > 7.5 µM and ≤ 15 µM |
| B22 | > 30 µM |
| B23 | > 15 µM and ≤ 22.5 µM |
| B24 | > 7.5 µM and ≤ 15 µM |
| B25 | > 7.5 µM and ≤ 15 µM |
| B26 | > 15 µM and ≤ 22.5 µM |
| B27 | ≤ 7.5 µM |
| B28 | ≤ 7.5 µM |
| B29 | > 7.5 µM and ≤ 15 µM |
| B30 | > 30 µM |
| B31 | > 15 µM and ≤ 22.5 µM |
| B32 | > 22.5 µM and ≤ 30 µM |
| B33 | > 7.5 µM and ≤ 15 µM |
| B34 | > 30 µM |
